Source: IntAct's records for PubMed 23686307

The substances below were run against tf65_human RELA (UniProt Q04206).

Q: How did the “effect of a mutation on the interaction” value turn out when “Bromodomain-containing protein 4 (Homo sapiens) (from UniProt O60885) Y139A;N140A” was run?
A: The value was “decreasing interaction”.

Q: With “Bromodomain-containing protein 4 (Homo sapiens) (from UniProt O60885) Y139A;N140A;Y432A;N433A” as the substance, how does the “effect of a mutation on the interaction” value read?
A: The value was “disrupting interaction”.

Q: With “Bromodomain-containing protein 4 (Homo sapiens) (from UniProt O60885) Y432A;N433A” as the substance, how does the “effect of a mutation on the interaction” value read?
A: Its value is “decreasing interaction”.
